Consider one molecule from patent US20250066499A1 (SUNSHINE GUOJIAN PHARMACEUTICAL SHANGHAI, published 2025).

Assay in all cases: ELISA; decline multiple of EC50 against CD73-ND
The target in assay [1] is T1, CD73-ND-L133A (human, UniProt P21589 27-317).
T1 construct: Alanine mutant of CD73-ND
T1 sequence: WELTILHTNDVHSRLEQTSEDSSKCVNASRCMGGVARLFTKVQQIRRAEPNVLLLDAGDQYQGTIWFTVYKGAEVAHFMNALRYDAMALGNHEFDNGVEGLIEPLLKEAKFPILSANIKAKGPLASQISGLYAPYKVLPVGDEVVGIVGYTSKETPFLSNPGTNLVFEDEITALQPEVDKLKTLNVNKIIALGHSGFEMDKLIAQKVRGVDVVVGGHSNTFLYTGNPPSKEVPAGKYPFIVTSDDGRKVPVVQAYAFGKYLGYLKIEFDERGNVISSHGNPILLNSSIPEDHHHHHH
As for the experimental part:
(§1) The ELISA plates were coated with SA protein diluted to 1.5 μg/mL in coating buffer (50 mM carbonate coating buffer, pH 9.6) and incubated overnight at 4° C. The supernatant was discarded, and the plates were washed three times with PBST. Then, 5% skimmed milk powder prepared with PBS was added for blocking and the plates were incubated for 2 h at 37° C. After washing the plates once with PBST, CD73-biotin protein (prepared by biotinylating CD73-His protein according to the EZ-Link NHS-Biotin Reagent instructions) was diluted to 0.5 μg/mL and added at 100 μL/well for incubation at room temperature for 1 h. The plates were washed three times with PBST, and the prepared murine-derived monoclonal antibodies against human CD73 were serially diluted with 1% BSA buffer prepared with PBST and added to the ELISA plates at 100 μl/well. The plates were incubated at 37° C. for 1 h. After washing the plates three times with PBST, HRP-labeled goat anti-mouse IgG secondary antibody was added and the plates were incubated for 30 min at 37° C. After washing the plates three times with PBST, the residual droplets were patted dry on absorbent paper as much as possible. Then, 100 μl of TMB color developing solution was added to each well, and the plates were incubated in the dark at room temperature for 5 min for color development. Subsequently, 50 μl of 2M H₂SO₄ stop solution was added to each well to terminate the substrate reaction. The OD values were read at 450 nm using a multimode microplate reader to analyze the binding ability of the tested antibodies to the target antigen human CD73-His.
(§2) Referring to the experimental method in Example 3, the affinity of 48A11-HuV33 for various mutant proteins of CD73-ND was determined. The SA protein was diluted to 1 μg/mL for coating the ELISA plates, and the biotinylated CD73 protein (CD73-biotin) was used at a concentration of 0.1 μg/mL.

For assay [2], the target named is T2, CD73-ND-P134A (human, UniProt P21589 27-317).
T2 construct: Alanine mutant of CD73-ND
T2 sequence: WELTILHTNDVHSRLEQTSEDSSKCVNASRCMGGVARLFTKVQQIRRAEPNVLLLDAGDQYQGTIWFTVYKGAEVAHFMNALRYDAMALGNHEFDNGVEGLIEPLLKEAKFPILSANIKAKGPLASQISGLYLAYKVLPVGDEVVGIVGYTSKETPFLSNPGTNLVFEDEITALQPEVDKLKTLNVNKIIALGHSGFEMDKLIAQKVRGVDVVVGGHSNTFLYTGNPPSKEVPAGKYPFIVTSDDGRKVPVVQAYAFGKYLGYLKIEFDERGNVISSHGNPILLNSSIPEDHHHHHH
The procedure: as §1, §2

The target of assay [3] is T3, CD73-ND-Y135A (human, UniProt P21589 27-317).
T3 construct: Alanine mutant of CD73-ND
T3 sequence: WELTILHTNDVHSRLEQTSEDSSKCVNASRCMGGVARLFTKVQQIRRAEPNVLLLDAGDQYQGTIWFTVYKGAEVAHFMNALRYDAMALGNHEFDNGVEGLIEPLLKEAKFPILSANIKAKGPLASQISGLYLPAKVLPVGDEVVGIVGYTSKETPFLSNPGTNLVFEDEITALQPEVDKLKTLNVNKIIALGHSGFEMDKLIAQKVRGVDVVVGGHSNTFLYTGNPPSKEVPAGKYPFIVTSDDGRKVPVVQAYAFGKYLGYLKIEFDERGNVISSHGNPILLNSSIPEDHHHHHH
As for the experimental part: as §1, §2

Assay [4] deals with T4, CD73-ND-V137A (human, UniProt P21589 27-317).
T4 construct: Alanine mutant of CD73-ND
T4 sequence: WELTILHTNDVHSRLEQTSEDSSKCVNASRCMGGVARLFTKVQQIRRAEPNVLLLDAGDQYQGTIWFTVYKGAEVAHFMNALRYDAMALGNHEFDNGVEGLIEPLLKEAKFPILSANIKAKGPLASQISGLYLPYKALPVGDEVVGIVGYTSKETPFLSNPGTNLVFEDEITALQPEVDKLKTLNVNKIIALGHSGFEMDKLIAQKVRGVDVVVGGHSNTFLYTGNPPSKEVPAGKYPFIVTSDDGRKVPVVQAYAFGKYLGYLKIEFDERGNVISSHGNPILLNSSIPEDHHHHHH
As for the experimental part:
as §1, §2

Assay [5] deals with T5, CD73-ND-L138A (human, UniProt P21589 27-317).
T5 construct: Alanine mutant of CD73-ND
T5 sequence: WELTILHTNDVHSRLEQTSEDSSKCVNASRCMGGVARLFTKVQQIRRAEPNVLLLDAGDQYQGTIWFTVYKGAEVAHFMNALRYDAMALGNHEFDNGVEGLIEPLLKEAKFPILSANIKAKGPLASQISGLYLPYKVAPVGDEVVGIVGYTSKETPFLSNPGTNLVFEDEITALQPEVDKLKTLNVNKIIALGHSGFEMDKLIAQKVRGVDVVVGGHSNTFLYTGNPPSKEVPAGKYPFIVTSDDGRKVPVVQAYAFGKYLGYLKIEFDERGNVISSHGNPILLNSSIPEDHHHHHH
As for the experimental part: as §1, §2

B1: 48A11-HuV33 (antibody, human IgG4, V domains shown)
VH: QVQLVQSGAEVKKPGASVKVSCKASGYTFTSYWMHWVRQAPGQGLEWIGEINPSIGRTNYNEKFKSRVTLTRDTSTSTAYMELSSLRSEDTAVYYCARRVYGTMDYWGQGTLVTVSS
VL: DIQMTQSPSSLSASVGDRVTITCKASQDINSYLSWFQQKPGKSPKLLIYRANIWVDGVPSRFSGSGSGQDYTFTISSLQPEDIATYYCLQYDELYTFGQGTKVEIK
notes: Humanized
With B1, the “Ratio(EC50)” value stood at 169 fold in assay [1]; 1.3 fold in assay [2]; 1.1 fold in assay [3]; 5.9 fold in assay [4]; 1.2 fold in assay [5].
